Assay results from patent US6875737 (TRUSTEES OF TUFTS COLLEGE, dated 2005).
Numbered stars: 1 amine (or outer) side, 2 acyl side, 3 side chain; on linkers, the order of the positions; unused ones are H or OH. Square brackets hold non-standard residues; d marks the D form. Ends that are not written are not given here. * marks the point of attachment. εLys = N[C@@H](CCCCN[*:1])C(=O)[*:2]; Adipoyl = O=C(CCCCC(=O)[*:2])[*:1]; boroPro = OB(O)[C@@H]1CCCN1*

Legend:
Assay in all cases: cell-based or functional assay
[1] = molecular target: T1, T cell receptor of the PLP 139-151 specific T cell clone 4E3.B11.D9.H10.H6
[2] = molecular target: T2, T cell receptor of the PLP 139-151 specific T cell clone 5B8.G8.E6.H12
[3] = molecular target: T1, T cell receptor of the PLP 139-151 …; remark: listed apart in the source
[4] = molecular target: T cell receptor of the PLP 139-151 specific T cell clone 7A5.F10.G11
[5] = molecular target: T2, T cell receptor of the PLP 139-151 …; remark: listed apart in the source
[6] = molecular target: T cell receptor of the PLP 139-151 specific T cell clone SPL.C1.H2.F2
[7] = molecular target: T cell receptor of the PLP 139-151 specific T cell clone 2E5.G10.G5.E5
CD26 on H9 T cells = CD26 on H9 T cells (UniProt P27487 1-766, limits assumed)
CD26 on H9 T cells, sequence (P27487 whole entry): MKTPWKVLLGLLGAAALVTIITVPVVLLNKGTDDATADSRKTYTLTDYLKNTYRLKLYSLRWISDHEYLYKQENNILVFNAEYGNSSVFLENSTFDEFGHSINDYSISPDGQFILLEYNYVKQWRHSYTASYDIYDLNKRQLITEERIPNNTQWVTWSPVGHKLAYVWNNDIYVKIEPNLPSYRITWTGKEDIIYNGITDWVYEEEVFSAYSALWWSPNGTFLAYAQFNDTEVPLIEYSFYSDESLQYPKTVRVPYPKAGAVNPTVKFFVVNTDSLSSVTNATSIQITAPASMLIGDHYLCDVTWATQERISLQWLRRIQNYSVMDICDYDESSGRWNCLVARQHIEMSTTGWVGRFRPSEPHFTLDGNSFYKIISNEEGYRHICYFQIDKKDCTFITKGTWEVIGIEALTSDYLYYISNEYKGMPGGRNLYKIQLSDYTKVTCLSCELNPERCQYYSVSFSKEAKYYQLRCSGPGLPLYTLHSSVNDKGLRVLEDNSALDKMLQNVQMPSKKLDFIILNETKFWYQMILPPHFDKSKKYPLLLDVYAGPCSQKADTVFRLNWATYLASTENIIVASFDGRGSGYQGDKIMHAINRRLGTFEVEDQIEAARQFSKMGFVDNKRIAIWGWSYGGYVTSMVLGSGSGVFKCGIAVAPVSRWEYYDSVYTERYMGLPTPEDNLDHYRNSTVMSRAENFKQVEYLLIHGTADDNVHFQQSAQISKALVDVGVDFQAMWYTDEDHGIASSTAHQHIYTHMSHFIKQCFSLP

Row | proliferation (thymidine uptake), antigen dose 0.1 µM [3] | proliferation (thymidine uptake), antigen dose 1 µM [3] | proliferation (thymidine uptake), antigen dose 10 µM [3] | proliferation (thymidine uptake), antigen dose 100 µM [3] | proliferation (thymidine uptake), antigen dose 0.1 µM [4] | proliferation (thymidine uptake), antigen dose 1 µM [4] | proliferation (thymidine uptake), antigen dose 10 µM [4] | proliferation (thymidine uptake), antigen dose 100 µM [4] | proliferation (thymidine uptake), antigen dose 1 µM [5] | proliferation (thymidine uptake), antigen dose 10 µM [5] | proliferation (thymidine uptake), antigen dose 100 µM [5] | proliferation (thymidine uptake), antigen dose 0.1 µM [6] | proliferation (thymidine uptake), antigen dose 1 µM [6] | proliferation (thymidine uptake), antigen dose 10 µM [6] | proliferation (thymidine uptake), antigen dose 100 µM [6] | proliferation (thymidine uptake), antigen dose 0.1 µM [7] | proliferation (thymidine uptake), antigen dose 1 µM [7] | proliferation (thymidine uptake), antigen dose 10 µM [7] | proliferation (thymidine uptake), antigen dose 100 µM [7] | Binder | also measured
1 | 3690 3H counts | 8580 3H counts | 15800 3H counts | 17600 3H counts | 187 3H counts | 8200 3H counts | 35500 3H counts | 44000 3H counts | 22000 3H counts | 53600 3H counts | 34700 3H counts | 681 3H counts | 2530 3H counts | 17500 3H counts | 31600 3H counts | 175 3H counts | 7740 3H counts | 26400 3H counts | 36700 3H counts | HSLGKWLGHPDKFAAAAAA-{εLys-boroPro} | enhancement of the proliferative response against PLP 139-151 [1]: ~2000 fold; enhancement of the proliferative response against PLP 139-151 [2]: ~200 fold
2 | 318 3H counts | 125 3H counts | 534 3H counts | 1930 3H counts | 117 3H counts | 222 3H counts | 406 3H counts | 2320 3H counts | 349 3H counts | 9180 3H counts | 41100 3H counts | 423 3H counts | 107 3H counts | 400 3H counts | 809 3H counts | 101 3H counts | 288 3H counts | 70 3H counts | 1510 3H counts | HSLGKWLGHPDKF [Myelin proteolipid protein peptide PLP 139-151 (HSLGKWLGHPDKF)] | proliferation (thymidine uptake), antigen dose 0.1 µM [5]: 106 3H counts
3 | – | – | – | – | – | – | – | – | – | – | – | – | – | – | – | – | – | – | – | Lys(Adipoyl)-[boroPro] (also: dimer: two Lys-boroPro joined by adipoyl linker between lysine ε-amino groups) [KbP2-Adipate (di(L-Lysine-L-boroProline)adipate)] | augmentation of IL-2 production by anti-CD3 (OKT3) stimulated H9 cells (CD26 on H9 T cells): ≤ 4 fold
